These results are taken from the supplement of paper PMC7125110.

± gives the standard error. Variants at the floor of the assay were thinned out. Bounds are passed on as bounds.

B1: glmS ribozyme (parent)
chain: AUAAAAGCGCCAGAACUACAGAAAUGUAGUUGACGAGGAGGAGGUUUAUCGAAUUUUCGGCGGAUGCCUCCAAA

Details in all cases: with glucosamine-6-phosphate
In series [1] the parent is B1. Kind of series: self-cleavage kobs at 40 uM GlcN6P; higher = faster cleavage; RNA array. A digest of the protocol:
(§1)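 Glucosamine-6-phosphate in HEPES/KCl/Mg(OAc)2 buffer, at 40 μM to 10 mM, was flowed over barcoded ribozyme variants transcribed in situ by E. coli RNA polymerase on sequenced MiSeq chips. Tracking was through a hybridised Cy3 probe at 37 °C. kobs, kcat and KM came from exponential decay fits and weighted Michaelis–Menten fits of normalised per-tile medians.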

Variants of B1 are the subject of series [2]. The series is described as follows: self-cleavage kobs at 640 uM GlcN6P; higher = faster cleavage; RNA array. In a few lines: as §1
In series [3] the parent is B1. Kind of series: self-cleavage kobs at 10000 uM GlcN6P; higher = faster cleavage; RNA array. In a few lines: as §1
In series [4] the parent is B1. Kind of series: self-cleavage kobs at 160 uM GlcN6P; higher = faster cleavage; RNA array. A digest of the protocol:
as §1

In series [5] the parent is B1. Kind of series: self-cleavage kobs at 2500 uM GlcN6P; higher = faster cleavage; RNA array. A digest of the protocol:
as §1

On to A14U A33G G38U C71A, for which the “self-cleavage kobs at 40 uM GlcN6P” value in series [1] is under 1e-05 s⁻¹.
Turning to U49C U65C, the “self-cleavage kobs at 40 uM GlcN6P” value in series [1] is under 1e-05 s⁻¹. For the same variant, the “self-cleavage kobs at 640 uM GlcN6P” value in series [2] is under 1e-05 s⁻¹. The “self-cleavage kobs at 10000 uM GlcN6P” value in series [3] is under 1e-05 s⁻¹.
A12C G43U C71A: the “self-cleavage kobs at 40 uM GlcN6P” value in series [1] is under 1e-05 s⁻¹.
On to G9A U57G C67U, for which the “self-cleavage kobs at 40 uM GlcN6P” value in series [1] was under 1e-05 s⁻¹. Moreover, the “self-cleavage kobs at 10000 uM GlcN6P” value in series [3] was under 1e-05 s⁻¹.
Consider C34G G40A U55G, for which the “self-cleavage kobs at 40 uM GlcN6P” value in series [1] is under 1e-05 s⁻¹.
Take G13A U46C G59A: the “self-cleavage kobs at 40 uM GlcN6P” value in series [1] was under 1e-05 s⁻¹.
A14G G40A A53U: the “self-cleavage kobs at 40 uM GlcN6P” value in series [1] worked out at 0.000596 ± 0.00013 s⁻¹. For the same variant, in series [3], the “self-cleavage kobs at 10000 uM GlcN6P” value amounted to 0.0182 ± 0.004 s⁻¹.
As to C16A G40U A48U, the “self-cleavage kobs at 40 uM GlcN6P” value in series [1] is under 1e-05 s⁻¹. For the same variant, the “self-cleavage kobs at 10000 uM GlcN6P” value in series [3] is under 1e-05 s⁻¹.
As for A14C G43U, the “self-cleavage kobs at 40 uM GlcN6P” value in series [1] was under 1e-05 s⁻¹. The “self-cleavage kobs at 160 uM GlcN6P” value in series [4] was under 1e-05 s⁻¹. Further, the “self-cleavage kobs at 640 uM GlcN6P” value in series [2] is under 1e-05 s⁻¹. Further, the “self-cleavage kobs at 2500 uM GlcN6P” value in series [5] is under 1e-05 s⁻¹.
Take G44C U49G: the “self-cleavage kobs at 40 uM GlcN6P” value in series [1] is under 1e-05 s⁻¹. Further, the “self-cleavage kobs at 2500 uM GlcN6P” value in series [5] is under 1e-05 s⁻¹. In series [3], the “self-cleavage kobs at 10000 uM GlcN6P” value is under 1e-05 s⁻¹.
In the case of C11G C16A G38C, in series [1], the “self-cleavage kobs at 40 uM GlcN6P” value is under 1e-05 s⁻¹. Moreover, in series [4], the “self-cleavage kobs at 160 uM GlcN6P” value is under 1e-05 s⁻¹. The “self-cleavage kobs at 10000 uM GlcN6P” value in series [3] was under 1e-05 s⁻¹.
On to A6C G29U G32A U45A G60A, for which the “self-cleavage kobs at 40 uM GlcN6P” value in series [1] is under 1e-05 s⁻¹. In addition, the “self-cleavage kobs at 2500 uM GlcN6P” value in series [5] was under 1e-05 s⁻¹.
For the variant A6U C34U, the “self-cleavage kobs at 40 uM GlcN6P” value in series [1] was under 1e-05 s⁻¹. The “self-cleavage kobs at 160 uM GlcN6P” value in series [4] was under 1e-05 s⁻¹. Also, in series [2], the “self-cleavage kobs at 640 uM GlcN6P” value is under 1e-05 s⁻¹. Also, the “self-cleavage kobs at 10000 uM GlcN6P” value in series [3] was under 1e-05 s⁻¹.
Take A14G A52G: the “self-cleavage kobs at 40 uM GlcN6P” value in series [1] came out at 9.65e-05 ± 1.7e-05 s⁻¹. The “self-cleavage kobs at 160 uM GlcN6P” value in series [4] came out at 0.000152 ± 4e-05 s⁻¹. Moreover, the “self-cleavage kobs at 640 uM GlcN6P” value in series [2] amounted to 0.00106 ± 0.00018 s⁻¹. In series [5], the “self-cleavage kobs at 2500 uM GlcN6P” value is 0.00234 ± 0.00051 s⁻¹. The “self-cleavage kobs at 10000 uM GlcN6P” value in series [3] worked out at 0.00467 ± 0.001 s⁻¹.
For A6G A33G A48G A64U, the “self-cleavage kobs at 40 uM GlcN6P” value in series [1] is under 1e-05 s⁻¹. For the same variant, the “self-cleavage kobs at 10000 uM GlcN6P” value in series [3] was under 1e-05 s⁻¹.
On to A33C C58A, for which, in series [1], the “self-cleavage kobs at 40 uM GlcN6P” value was under 1e-05 s⁻¹. For the same variant, the “self-cleavage kobs at 640 uM GlcN6P” value in series [2] was under 1e-05 s⁻¹.
In the case of A12C A15C U47A U49A, the “self-cleavage kobs at 40 uM GlcN6P” value in series [1] is under 1e-05 s⁻¹. For the same variant, the “self-cleavage kobs at 10000 uM GlcN6P” value in series [3] was under 1e-05 s⁻¹.
Regarding C11A A14G G29A G35A A53G, in series [1], the “self-cleavage kobs at 40 uM GlcN6P” value is under 1e-05 s⁻¹.
Take G9U G41C: the “self-cleavage kobs at 40 uM GlcN6P” value in series [1] is under 1e-05 s⁻¹. Besides, in series [4], the “self-cleavage kobs at 160 uM GlcN6P” value is under 1e-05 s⁻¹. Besides, the “self-cleavage kobs at 2500 uM GlcN6P” value in series [5] was under 1e-05 s⁻¹.
As to U55C C68A, the “self-cleavage kobs at 40 uM GlcN6P” value in series [1] is under 1e-05 s⁻¹. For the same variant, the “self-cleavage kobs at 160 uM GlcN6P” value in series [4] is under 1e-05 s⁻¹. Moreover, in series [2], the “self-cleavage kobs at 640 uM GlcN6P” value was under 1e-05 s⁻¹. The “self-cleavage kobs at 2500 uM GlcN6P” value in series [5] was under 1e-05 s⁻¹.
Regarding A42G C50U G63U C71G, in series [1], the “self-cleavage kobs at 40 uM GlcN6P” value is under 1e-05 s⁻¹. The “self-cleavage kobs at 10000 uM GlcN6P” value in series [3] was under 1e-05 s⁻¹.
In the case of A48C U69G C70U, the “self-cleavage kobs at 40 uM GlcN6P” value in series [1] is under 1e-05 s⁻¹. Further, in series [5], the “self-cleavage kobs at 2500 uM GlcN6P” value is under 1e-05 s⁻¹. Further, in series [3], the “self-cleavage kobs at 10000 uM GlcN6P” value is under 1e-05 s⁻¹.
For U55G C58A G60C C61G C67A, in series [1], the “self-cleavage kobs at 40 uM GlcN6P” value was under 1e-05 s⁻¹.
Regarding G43U C61A, in series [1], the “self-cleavage kobs at 40 uM GlcN6P” value was under 1e-05 s⁻¹. The “self-cleavage kobs at 160 uM GlcN6P” value in series [4] is under 1e-05 s⁻¹. The “self-cleavage kobs at 640 uM GlcN6P” value in series [2] is under 1e-05 s⁻¹. Also, in series [5], the “self-cleavage kobs at 2500 uM GlcN6P” value was under 1e-05 s⁻¹. The “self-cleavage kobs at 10000 uM GlcN6P” value in series [3] was under 1e-05 s⁻¹.
With G43U C61U, the “self-cleavage kobs at 40 uM GlcN6P” value in series [1] was under 1e-05 s⁻¹. The “self-cleavage kobs at 160 uM GlcN6P” value in series [4] was under 1e-05 s⁻¹. In series [2], the “self-cleavage kobs at 640 uM GlcN6P” value was under 1e-05 s⁻¹. Besides, in series [5], the “self-cleavage kobs at 2500 uM GlcN6P” value is under 1e-05 s⁻¹. Further, the “self-cleavage kobs at 10000 uM GlcN6P” value in series [3] is under 1e-05 s⁻¹.
